Assay results as given in US8765433B2, “Alcohol dehydrogenases (ADH) useful for fermentive production of lower alkyl alcohols” (Butamax Advanced Biofuels LLC, priority 2009, dated 2014).

Key:
[1] = Cofactor specificity in isobutyraldehyde reduction reactions; assay type: biochemical; conditions: for COFACTOR PREFERENCE: isobutyraldehyde reduction, NADH or NADPH as cofactor
Protocol: (§1) As a routine practice, the crude extracts and purified proteins were assayed for butanol oxidation activity, in order to ensure that the recombinant proteins were active throughout the purification process. […] Alcohol oxidation activities were carried out in 50 mM sodium phosphate buffer at pH 8.8 and aldehyde reduction reactions were assayed in 190 mM potassium phosphate buffer at pH 7.0. Depending on the nature of reaction being carried out, the enzyme and cofactor stocks were diluted in the reaction buffers at the respective pHs. Either buffer or cell extract prepared from the proprietary E. coli strain (with no ADH plasmid) was used as the negative control for assays with purified protein and cell-free extracts, respectively.
In initial experiments, there were insufficient levels of protein expression with EhADH1 and RpADH8. […] It is believed that one of skill in the art could further optimize expression and assay conditions for these candidates. Sufficient amounts of active protein could be purified with all other enzymes for which data are presented. […]

[2] = Isobutanol oxidation assay; assay type: biochemical; conditions: Table 8
Protocol: as §1
Kinetic constants of the ADH enzymes were calculated and compared to identify those candidate ADH enzymes with the most desirable properties for the conversion of isobutyraldehyde to isobutanol in the last step of the engineered pathway for isobutanol production. The assays for determining the kinetic constants were carried out using initial rates from the assays described above. […] The concentration of a given enzyme was such that it was conducive for the measurement of initial velocities over a 1-min time course. For each enzyme, Michaelis-Menten plots were generated with a broad range of substrate concentrations. Rough estimates of KM were obtained, based on which the assays were redesigned so as to use substrate concentrations in the range 0.5 to 10 times the KM value, to be able to obtain the appropriate kinetic constants. […] When calculating the KI for isobutanol, the same reactions were carried out in the presence of varying concentrations of isobutanol (generally 0-535 mM) in the reaction (see FIG. 7, for example). Reactions with isobutanol substrate were performed at 30° C. in 50 mM Sodium phosphate buffer, pH 8.8, containing 7.5 mM NAD. The Enzyme kinetics module (Version 1.3) of SigmaPlot 11 (Systat Software, Inc.) was used to fit data to Michaelis-Menten equations and calculate the kinetic constants. The kcat/KM is derived from the individual numbers of kcat and KM and not an experimentally determined value. The ratios of the KM, KI, and kcat/KM for each candidate enzyme as compared to the same parameter for SadB are given in Table 9.

B1: MsADH: Methylocella silvestris BL2 ADH, SEQ ID NO: 35 (protein)
chain: MKALVYHGPGQKALEERPKPQIEASGDAIVKIVKTTICGTDLHILKGDVATCAPGRILGHEGVGIIDSVGAGVTAFQPGDRVLISCISSCGKCDYCRRGLYSHCTTGGWILGNEIDGTQAEYVRTPHADTSLYRIPAGADEEALVMLSDILPTGFECGVLNGKVEPGSTVAIVGAGPIGLAALLTAQFYAPGDIIMIDLDDNRLDVARRFGATHTINSGDGKAAEAVKALTGGIGVDTAIEAVGIPATFLLCEDIVAPGGVIANVGVHGVKVDLHLERLWAHNITITTRLVDTVTTPMLLKTVQSKKLDPLQLITHRFTLDHILDAYDTFSRAADTKALKVIVSA
modifications: Methyloceclla silvestris BL2
With B1 the “Other enzymatic properties and cofactor preference” value ([1]; Table 8) was “NADH specific”, the “COFACTOR PREFERENCE” value [1] was “NADH” and the “conversion of isobutanol to isobutyraldehyde” value (“conversion of isobutanol” for short) [2] was “No measureable”.

B2: SadB: Achromobacter xylosoxidans Secondary Alcohol Dehydrogenase B; control polypeptide, SEQ ID NO: 26 (protein)
chain: MKALVYHGDHKISLEDKPKPTLQKPTDVVVRVLKTTICGTDLGIYKGKNPEVADGRILGHEGVGVIEEVGESVTQFKKGDKVLISCVTSCGSCDYCKKQLYSHCRDGGWILGYMIDGVQAEYVRIPHADNSLYKIPQTIDDEIAVLLSDILPTGHEIGVQYGNVQPGDAVAIVGAGPVGMSVLLTAQFYSPSTIIVIDMDENRLQLAKELGATHTINSGTENVVEAVHRIAAEGVDVAIEAVGIPATWDICQEIVKPGAHIANVGVHGVKVDFEIQKLWIKNLTITTGLVNTNTTPMLMKVASTDKLPLKKMITHRFELAEIEHAYQVFLNGAKEKAMKIILSNAGAA
modifications: Achromobacter xylosoxidans
With B2 the “COFACTOR PREFERENCE” value [1] was “NADH”.

B3: HLADH: Horse-liver ADH (A-6128) purchased from Sigma; control polypeptide, SEQ ID NO: 21 (protein, listed as Equus caballus)
chain: MSTAGKVIKCKAAVLWEEKKPFSIEEVEVAPPKAHEVRIKMVATGICRSDDHVVSGTLVTPLPVIAGHEAAGIVESIGEGVTTVRPGDKVIPLFTPQCGKCRVCKHPEGNFCLKNDLSMPRGTMQDGTSRFTCRGKPIHHFLGTSTFSQYTVVDEISVAKIDAASPLEKVCLIGCGFSTGYGSAVKVAKVTQGSTCAVFGLGGVGLSVIMGCKAAGAARIIGVDINKDKFAKAKEVGATECVNPQDYKKPIQEVLTEMSNGGVDFSFEVIGRLDTMVTALSCCQEAYGVSVIVGVPPDSQNLSMNPMLLLSGRTWKGAIFGGFKSKDSVPKLVADFMAKKFALDPLITHVLPFEKINEGFDLLRSGESIRTILTF
With B3 the “COFACTOR PREFERENCE” value [1] was “NADH”.

B4: GbADH: Geobacillus sp. WCH70 ADH, SEQ ID NO: 37 (protein)
chain: MKALTYLGPGKKEVMEKPKPKIEKETDAIVKITKTTICGTDLHILSGDVPTVEEGRILGHEGVGIIEEVGSGVKNFKKGDRVLISCITSCGKCENCKKGLYAHCEDGGWILGHLIDGTQAEYVRIPHADNSLYPIPEGVDEEALVMLSDILPTGFEIGVLNGKVQPGQTVAIIGAGPVGMAALLTAQFYSPAEIIMVDLDDNRLEVAKKFGATQVVNSADGKAVEKIMELTGGKGVDVAMEAVGIPVTFDICQEIVKPGGYIANIGVHGKSVEFHIEKLWIRNITLTTGLVNTTSTPMLLKTVQSKKLKPEQLITHRFAFADIMKAYEVFGNAAKEKALKVIISND
modifications: Geobacillus sp. WCH70
For B4, the “Other enzymatic properties and cofactor preference” value ([1]; Table 8) was “NADPH specific”, the “COFACTOR PREFERENCE” value [1] was “NADPH” and the “conversion of isobutanol” value [2] was “No measureable”.

B5: RnADH1: Rattus norvegicus ADH1, SEQ ID NO: 32 (protein, listed as Rattus norvegicus)
chain: MSTAGKVIKCKAAVLWEPHKPFTIEDIEVAPPKAHEVRIKMVATGVCRSDDHAVSGSLFTPLPAVLGHEGAGIVESIGEGVTCVKPGDKVIPLFSPQCGKCRICKHPESNLCCQTKNLTQPKGALLDGTSRFSCRGKPIHHFISTSTFSQYTVVDDIAVAKIDAAAPLDKVCLIGCGFSTGYGSAVQVAKVTPGSTCAVFGLGGVGLSVVIGCKTAGAAKIIAVDINKDKFAKAKELGATDCINPQDYTKPIQEVLQEMTDGGVDFSFEVIGRLDTMTSALLSCHSACGVSVIVGVPPSAQSLSVNPMSLLLGRTWKGAIFGGFKSKDAVPKLVADFMAKKFPLEPLITHVLPFEKINEAFDLLRAGKSIRTVLTF
For B5, the “Other enzymatic properties and cofactor preference” value ([1]; Table 7) was “NADH specific” and the “COFACTOR PREFERENCE” value [1] was “NADH”.

B6: AbADH: Acinetobacter baumannii AYE ADH, SEQ ID NO: 36 (protein)
chain: MENIMKAMVYYGDHDIRFEERKKPELIDPTDAIIKMTKTTICGTDLGIYKGKNPEIEQKEQEKNGSFNGRILGHEGIGIVEQIGSSVKNIKVGDKVIVSCVSRCGTCENCAKQLYSHCRNDGGWIMGYMIDGTQAEYVRTPFADTSLYVLPEGLNEDVAVLLSDALPTAHEIGVQNGDIKPGDTVAIVGAGPVGMSALLTAQFYSPSQIIMIDMDENRLAMAKELGATDTINSGTEDAIARVMELTNQRGVDCAIEAVGIEPTWDICQNIVKEGGHLANVGVHGKSVNFSLEKLWIKNLTITTGLVNANTTGMLLKSCCSGKLPMEKLATHHFKFNEIEKAYDVFINAAKEKAMKVIIDF
modifications: Acinetobacter baumannii AYE
In the case of B6, the “Other enzymatic properties and cofactor preference” value ([1]; Table 8) is reported as “NADH specific”, the “COFACTOR PREFERENCE” value [1] is reported as “NADH” and the “conversion of isobutanol” value [2] is reported as “No measureable”.

B7: ScADH7: Saccharomyces cerevisiae ADH7 alcohol dehydrogenase, SEQ ID NO: 23 (protein, listed as Saccharomyces cerevisiae)
chain: MLYPEKFQGIGISNAKDWKHPKLVSFDPKPFGDHDVDVEIEACGICGSDFHIAVGNWGPVPENQILGHEIIGRVVKVGSKCHTGVKIGDRVGVGAQALACFECERCKSDNEQYCTNDHVLTMWTPYKDGYISQGGFASHVRLHEHFAIQIPENIPSPLAAPLLCGGITVFSPLLRNGCGPGKRVGIVGIGGIGHMGILLAKAMGAEVYAFSRGHSKREDSMKLGADHYIAMLEDKGWTEQYSNALDLLVVCSSSLSKVNFDSIVKIMKIGGSIVSIAAPEVNEKLVLKPLGLMGVSISSSAIGSRKEIEQLLKLVSEKNVKIWVEKLPISEEGVSHAFTRMESGDVKYRFTLVDYDKKFHK
For B7, the “Other enzymatic properties and cofactor preference” value ([1]; Table 7) was “NADPH specific” and the “COFACTOR PREFERENCE” value [1] was “NADPH”.

B8: TADH: Thermus sp. ATN1 ADH, SEQ ID NO: 33 (protein)
chain: MRAVVFENKERVAVKEVNAPRLQHPLDALVRVHLAGICGSDLHLYHGKIPVLPGSVLGHEFVGQVEAVGEGIQDLQPGDWVVGPFHIACGTCPYCRRHQYNLCERGGVYGYGPMFGNLQGAQAEILRVPFSNVNLRKLPPNLSPERAIFAGDILSTAYGGLIQGQLRPGDSVAVIGAGPVGLMAIEVAQVLGASKILAIDRIPERLERAASLGAIPINAEQENPVRRVRSETNDEGPDLVLEAVGGAATLSLALEMVRPGGRVSAVGVDNAPSFPFPLASGLVKDLTFRIGLANVHLYIDAVLALLASGRLQPERIVSHYLPLEEAPRGYELFDRKEALKVLLVVRG
modifications: Thermus sp. ATN1
In the case of B8, the “Other enzymatic properties and cofactor preference” value ([1]; Table 7) is reported as “NADH specific” and the “COFACTOR PREFERENCE” value [1] is reported as “NADH”.

B9: PzADH: Phenylobacterium zucineum HLK1 ADH, SEQ ID NO: 34 (protein)
chain: MKALVYGGPGQKSLEDRPKPELQAPGDAIVRIVKTTICGTDLHILKGDVATCAPGRILGHEGVGIVDSVGAAVTAFRPGDHVLISCISACGKCDYCRRGMYSHCTTGGWILGNEIDGTQAEYVRTPHADTSLYPVPAGADEEALVMLSDILPTGFECGVLNGKVAPGGTVAIVGAGPIGLAALLTAQFYSPAEIIMIDLDDNRLGIARQFGATQTINSGDGRAAETVKALTGGRGVDTAIEAVGVPATFELCQDLVGPGGVIANIGVHGRKVDLHLDRLWSQNIAITTRLVDTVSTPMLLKTVQSRKLDPSQLITHRFRLDEILAAYDTFARAADTQALKVIIAA
modifications: Phenylobacterium zucineum HLK1
With B9 the “Other enzymatic properties and cofactor preference” value ([1]; Table 8) was “NADH specific”, the “COFACTOR PREFERENCE” value [1] was “NADH” and the “conversion of isobutanol” value [2] was “No measureable”.

B10: CbADH: Clostridium beijerinckii ADH, SEQ ID NO: 29 (protein, listed as Clostridium beijerinckii)
chain: MKGFAMLGINKLGWIEKERPVAGSYDAIVRPLAVSPCTSDIHTVFEGALGDRKNMILGHEAVGEVVEVGSEVKDFKPGDRVIVPCTTPDWRSLEVQAGFQQHSNGMLAGWKFSNFKDGVFGEYFHVNDADMNLAILPKDMPLENAVMITDMMTTGFHGAELADIQMGSSVVVIGIGAVGLMGIAGAKLRGAGRIIGVGSRPICVEAAKFYGATDILNYKNGHIVDQVMKLTNGKGVDRVIMAGGGSETLSQAVSMVKPGGIISNINYHGSGDALLIPRVEWGCGMAHKTIKGGLCPGGRLRAEMLRDMVVYNRVDLSKLVTHVYHGFDHIEEALLLMKDKPKDLIKAVVIL
In the case of B10, the “Other enzymatic properties and cofactor preference” value ([1]; Table 7) is reported as “NADPH specific” and the “COFACTOR PREFERENCE” value [1] is reported as “NADPH”.
